This is an account of results in US20170240642A1 (ALLIGATOR BIOSCIENCE, published 2017).

As usually defined, the koff is the rate constant with which the complex falls apart. Lower therefore signals a long-lived complex.

For this test, the target named is T1, CD40hfc (R&Dsystems, USA) (human, UniProt P25942 21-193).
T1 construct: Bought reagent, amine-coupled to the Biacore chip; also called immobilized CD40 receptor; not shown: Fc part of the bought CD40hfc
Description: SPR, Biacore 3000; CD40hfc amine-coupled to chip, antibody as analyte; 37 C, pH 7.3. As for the experimental part: The affinity measures of purified antibodies by surface plasmon resonance using the Biacore 3000 instrument was performed according to manufacturer's protocols.
The CD40hfc (R&Dsystems, USA) was immobilized to the BIAcore sensorchip, CMS, using conventional amine coupling. The anti-CD40 antibodies of the invention, (serially diluted 1/3 from 1-0.012 nM) were analysed for binding in HBS-P (GE, BR-1003-68) at a flow rate of 30 μl/min at 37° C. and pH 7.3. The association was followed for 3 minutes and the dissociation for 10 minutes. Regeneration was performed twice using 50 mM NaOH for 30 seconds. The kinetic parameters and the affinity constants were calculated using BIAevaluation 4.1 software.
On the technique in general: In SPR one partner is held on a chip, and binding of the other changes the refractive index at the surface.

T1 sequence (P25942 21-193): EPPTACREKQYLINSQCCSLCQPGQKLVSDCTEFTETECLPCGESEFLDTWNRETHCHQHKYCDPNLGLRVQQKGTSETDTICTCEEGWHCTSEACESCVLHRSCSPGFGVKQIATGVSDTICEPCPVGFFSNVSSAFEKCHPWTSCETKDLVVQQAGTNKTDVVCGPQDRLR

B1: Antibody clone F6 (antibody, human IgG1, lambda, V domains shown)
VH: EVQLLESGGGLVQPGGSLRLSCAASGFTFSTYGMHWVRQAPGKGLEWLSYISGGSSYIFYADSVRGRFTISRDNSENALYLQMNSLRAEDTAVYYCARILRGGSGMDLWGQGTLVTVSS
VL: QSVLTQPPSASGTPGQRVTISCTGSSSNIGAGYDVYWYQQLPGTAPKLLIYRNINRPSGVPDRFSGSKSGTSASLAISGLRSEDEADYYCAAWDGSLLGLVFGGGTKLTVLG
notes: Tested as purified antibody
As to B1, the koff was found to be 0.00032 s⁻¹.

B2: Antibody clone F9 (antibody, human IgG1, lambda, V domains shown)
VH: EVQLLESGGGLVQPGGSLRLSCAASGFTFSTYGMHWVRQAPGKGLEWLSYISGGSSYIFYADSVRGRFTISRDNSENALYLQMNSLRAEDTAVYYCARILRGGSGMDLWGQGTLVTVSS
VL: QSVLTQPPSASGTPGQRVTISCTGSSSNIGAGYGVYWYQQLPGTAPKLLIYGNINRPSGVPDRFSGSKSGTSASLAISGLRSEDEADYYCAAWDGTLTGLLFGGGTKLTVLG
notes: Tested as purified antibody
The molecule B2 showed a koff of 0.00012 s⁻¹.
